Measured values as given in the supplement of paper PMC10567573.

B1: PPFIA4 (parent)
chain: PGVHRRYSALREESAKDWETSPLP

Variants of: B1
Experiment: protein stability index of a GFP-peptide fusion (GPS, HEK-293T) (PSI 1-6); higher = more stable
Conditions: c terminus: a fixed tail appended
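Note: lentivirally expressed fusions sorted by FACS into six bins by GFP to DsRed ratio, PSI derived from sequencing read proportions per bin multiplied by bin number.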

Variant	protein stability index
R5W	3.81
R5Y	3.66
R6A	4.49
R6C	3.72
R6D	4.7
R6E	4.88
R6F	3.74
R6G	3.98
R6H	3.65
R6I	3.39
R6K	4.65
R6L	3.04
R6M	3.82
R6N	4.48
R6P	3.91
R6Q	4.31
R6S	4
R6T	4.35
R6W	2.71
R6Y	3.62
Y7A	4.8
Y7C	3.87
Y7D	4.38
Y7E	5.25

Variant	protein stability index
Y7F	4.13
Y7G	4.62
Y7H	4.39
Y7I	4.34
Y7K	4.58
Y7L	4.18
Y7M	4.56
Y7N	4.5
Y7P	4.24
Y7Q	4.9
Y7R	4.6
Y7S	4.58
Y7T	4.27
Y7V	4.49
Y7W	4.2
S8C	3.16
S8D	4.97
S8E	4.35
S8F	3.08
S8G	4.23
S8H	3.76
S8I	3.62
S8K	4.64
S8L	3.54

Variant	protein stability index
S8N	4.34
S8P	4.28
S8Q	4.86
S8R	4.07
S8T	2.88
S8V	3.67
S8W	2.08
S8Y	3.79
A9C	3.67
A9E	3.92
A9F	2.91
A9G	3.87
A9H	3.92
A9K	4.03
A9L	4.27
A9M	3.86
A9N	4.4
A9P	2.93
A9Q	3.5
A9S	4.22
A9T	4.19
A9V	4.12
A9W	3.58
A9Y	3.4

Variant	protein stability index
L10A	3.69
L10C	2.28
L10D	4.97
L10F	4.29
L10H	4.48
L10I	4.15
L10K	4.69
L10M	4.31
L10N	4.79
L10P	4.97
L10Q	3.63
L10S	4.53
L10T	4.97
L10V	4.26
L10W	4.31
L10Y	4.02
R11A	4.31
R11C	4.37
R11D	4.82
R11E	5.29
R11F	3.59
R11G	3.41
R11H	3.67
R11I	3.92

Variant	protein stability index
R11K	4.36
R11L	3.86
R11M	4.45
R11N	4.58
R11P	4.19
R11Q	4.65
R11S	4.55
R11T	4.88
R11V	4.21
R11W	3.16
R11Y	3.79
E12A	3.94
E12C	3.57
E12D	4.05
E12F	3.02
E12G	4.62
E12H	3.85
E12I	3.21
E12K	3.96
E12L	3.45
E12M	3.56
E12N	4.23
E12P	3.88
E12Q	3.68

Variant	protein stability index
E12R	3.45
E12S	3.68
E12T	4.02
E12W	3.11
E12Y	3.48
E13A	3.75
E13C	2.38
E13D	3.74
E13F	3.8
E13G	3.93
E13H	2.63
E13I	3.45
E13K	3.69
E13L	3.34
E13M	2.96
E13N	3.42
E13P	3.11
E13Q	4.04
E13S	3.96
E13T	3.51
E13V	4.06
E13W	2.64
E13Y	3.14
S14D	4.92

Variant	protein stability index
S14E	4.69
S14F	3.63
S14G	4.12
S14H	4.19
S14I	4.05
S14K	5
S14L	3.93
S14M	3.41
S14N	4.69
S14P	3.87
S14Q	3.63
S14R	3.07
S14T	3.56
S14V	3.92
S14W	2.81
S14Y	3.46
A15C	3.63
A15D	4.92
A15E	4.52
A15F	3.52
A15G	4.07
A15H	4.39
A15K	4.59
